The target in the test is 6xHis-hSTAT3_(136-705) (human) (UniProt P40763). Description: ITC. (Isothermal titration calorimetry measures the heat released or taken up as one component is titrated into another.)

The text below walks through data of PMC6952535.

Sequence of UniProt P40763 (P40763 136-705): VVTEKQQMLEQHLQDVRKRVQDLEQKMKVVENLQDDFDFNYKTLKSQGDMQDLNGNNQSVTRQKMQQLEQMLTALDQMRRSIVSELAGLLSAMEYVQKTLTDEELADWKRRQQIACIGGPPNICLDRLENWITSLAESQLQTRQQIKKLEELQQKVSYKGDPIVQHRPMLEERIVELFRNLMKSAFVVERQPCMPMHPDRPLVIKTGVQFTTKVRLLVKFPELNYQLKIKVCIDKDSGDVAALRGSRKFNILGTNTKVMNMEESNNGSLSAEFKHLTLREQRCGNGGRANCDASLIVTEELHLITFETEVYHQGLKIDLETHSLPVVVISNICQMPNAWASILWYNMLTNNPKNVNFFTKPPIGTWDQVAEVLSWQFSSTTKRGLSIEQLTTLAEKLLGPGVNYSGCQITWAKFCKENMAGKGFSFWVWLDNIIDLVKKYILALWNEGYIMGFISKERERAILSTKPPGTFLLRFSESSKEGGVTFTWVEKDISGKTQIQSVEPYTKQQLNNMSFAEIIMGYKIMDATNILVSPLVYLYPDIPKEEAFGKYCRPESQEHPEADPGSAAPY

As usually defined, the Kd is the equilibrium constant for the complex coming apart. A low value points to higher affinity. Regarding “gp130 phosphopeptide containing YxxQ (phosphorylated at Y767)”, the Kd was 2.29 µM.

“SarA phospho-peptide (ten residues spanning the YxxQ motif, phosphorylated at Y167)” had a Kd of 0.143 µM.
